Assay results published in article PMC4643982.

Molecular target: T1, EutR::MBP (Salmonella enterica serovar Typhimurium SL1344) (UniProt Q9ZFU7)
T1 sequence: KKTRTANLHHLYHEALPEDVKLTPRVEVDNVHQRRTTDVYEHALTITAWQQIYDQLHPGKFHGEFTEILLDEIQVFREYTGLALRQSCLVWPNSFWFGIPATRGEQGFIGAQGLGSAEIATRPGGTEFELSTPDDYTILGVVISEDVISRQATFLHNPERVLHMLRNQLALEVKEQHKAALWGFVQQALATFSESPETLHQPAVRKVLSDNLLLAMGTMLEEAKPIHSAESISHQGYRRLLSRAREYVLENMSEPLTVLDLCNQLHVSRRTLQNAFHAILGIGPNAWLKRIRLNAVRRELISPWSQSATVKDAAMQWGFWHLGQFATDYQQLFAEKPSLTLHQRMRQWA
Assay: competition
Settings: 60 mM HEPES pH 7.5, 300 mM KCl, 25 mM MgCl2, 5 mM EDTA, 3 mM DTT, 500 ug/ml BSA, 50 ng poly-dIdC, 1 mM ethanolamine, 150 nM vitamin B12; 25 min at 25 C; 6% …

For “CCGGAATTGCCAGCTGGGGCGCCCTCTGGTAAGGTTGGGAAGCCCTGCAAAGTAAACTGGATGGCTTTCTTGCCGCCAAGGATCTGATGGCGCAGGGGATCAAGATCTGATCAAGAGACAGGATGAGGATCGTTTCGCATGATTGAACAAGA (double strand) [kan promoter probe]”, the binding was “no binding”.
